Laboratory results reported in US20250332264A1, “GhR-BINDING PEPTIDE AND COMPOSITION COMPRISING SAME” (priority 2021, published 2025).
Starred links: 1 amine or outer side, 2 acyl side, 3 side chain; linkers in the order of their positions; H or OH if unused. Positions of bridges follow the written chain, without caps; N, C: chain ends. Non-standard residues stand in square brackets, D forms with d. A4pipaa = 4-amino-1-(carboxymethyl)piperidine-4-carboxylic acid, O=C(C1(N[*:1])CCN(CC(=O)[*:3])CC1)[*:2]; Trp(1-CH2CO) = O=C([C@H](Cc1cn(CC(=O)[*:3])c2ccccc12)N[*:1])[*:2]; Trp(5-OMe) = COc1ccc2[nH]cc(C[C@H](N)C(=O)O)c2c1; Trp(5-OH) = N[C@@H](Cc1c[nH]c2ccc(O)cc12)C(=O)O; NMeK = CN[C@@H](CCCCN)C(=O)O; Aib = CC(C)(N)C(=O)O; Sar = CNCC(=O)O

T1: Recombinant human GhR-Fc protein (R&D Systems) (human, UniProt P10912 19-264, limits assumed)
T1 construct: Bought from R&D Systems; Amine-coupled to a CM5 chip in the SPR assay; also called hGhR; recombinant human GhR protein fused to Fc portion of human IgG; not shown: Fc portion of human IgG
T1 sequence (looked up): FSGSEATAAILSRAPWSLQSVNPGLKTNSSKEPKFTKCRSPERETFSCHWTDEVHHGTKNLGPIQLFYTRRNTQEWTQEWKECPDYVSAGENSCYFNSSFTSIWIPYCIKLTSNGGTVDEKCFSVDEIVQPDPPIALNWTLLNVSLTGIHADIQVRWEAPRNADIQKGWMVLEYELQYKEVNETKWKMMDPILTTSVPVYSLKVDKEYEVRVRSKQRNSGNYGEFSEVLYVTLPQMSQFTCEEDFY

B1: GhR_PD_141 (peptide)
peptide: {CH2CO}-Y[NMeK]VVSN[Trp(1-CH2CO)]YK[Trp(5-OH)][Aib]VCG-NH2
modifications: thioether N-13; lactam 2-7 via Sar
notes: also called Compound No. 3
B2: GhR_PD_142 (peptide)
peptide: {CH2CO}-Y[NMeK]VVSN[Trp(1-CH2CO)]YK[Trp(5-OH)][Aib]VCG-NH2
modifications: thioether N-13; lactam 2-7 via P
notes: also called Compound No. 4
B3: GhR_PD_205 (peptide)
peptide: {CH2CO}-YKVVSN[Trp(5-OMe)]YK[Trp(5-OH)][A4pipaa]VC-NH2
modifications: thioether N-13; not fully specified (residue 2); also: albumin binder E-4IPhpCO, attachment site not given here
notes: No linker; also called Compound No. 45

Molecular target: T1, Recombinant human GhR-Fc protein (R&D …)
Assay: SPR, Biacore T200, single-cycle kinetics, GhR-Fc immobilised on CM5
Protocol: SPR assay was performed using Biacore T200 (cytiva: Former GE Healthcare). After the equilibration of Series S Sensor Chip CM5 (produced by cytiva: Former GE Healthcare) with Running Buffer (HBS-EP with 1% (v/v) DMSO), an EDC/NHS mixture was injected at a flow rate of 10 μL/min for 7 minutes to thereby activate the functional groups on sensor chip. Recombinant human GhR-Fc protein (R&D Systems) in 10 mM Acetate (pH4.0) was injected immobilized to at a flow rate of 5 μL/min. It took 7 minutes to immobilize the GhR on the substrate surfaces of the sensor chip. Then Ethanolamine was injected at a flow rate of 10 μL/min for 7 minutes. 1M Ethanolamine (aq.) was injected at a flow rate of 10 μL/min for 420 seconds for capping. 10 mM Peptides in DMSO were diluted to obtain 10 uM with Running Buffer, and prepared 100 nM, 50 nM, 25 nM, 10 nM, 5 nM of each peptide solutions (Peptide Samples).
Using these Peptide Samples, kinetics of peptides against human GhR-Fc protein were measured. The method adopted for sample measurement was a single-cycle kinetics method. The analysis was conducted using the evaluation software provided with Biacore T200. A DMSO correction curve obtained by solvent correction measurements was applied for the analysis. Kinetics fitting was done on the difference data obtained by subtracting the baseline data from sample measurement data. KD values were calculated based on the association rate constant (ka) and dissociation rate constant (kd).

Binder | Kd
B1 | 1.71 nM
B2 | 1.07 nM
B3 | 3.36 nM
